Reference: US20150197757, “OXYGEN-RESPONSIVE BACTERIAL GENE SWITCH” (Wisconsin Alumni Research Foundation, published 2015)

What was measured:
[1] = biological target: T1, ArcA (chromosomal) (Escherichia coli, UniProt P0A9Q1 P0A9Q1:1-238); assay: cell_activity; anaerobic lacZ fusion; repression largely relieved with O2
T1 sequence: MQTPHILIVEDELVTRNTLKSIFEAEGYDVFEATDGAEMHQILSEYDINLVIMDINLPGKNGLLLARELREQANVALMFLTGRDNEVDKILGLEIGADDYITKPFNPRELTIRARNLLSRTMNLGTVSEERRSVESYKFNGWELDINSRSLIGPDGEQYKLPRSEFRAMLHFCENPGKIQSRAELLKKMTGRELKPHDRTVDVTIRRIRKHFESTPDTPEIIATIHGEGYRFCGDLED
Procedure: (§1) Strains containing P1icdA-lacZ were grown in minimal media with 0.2% glucose. Fold repression was calculated by dividing the β-galactosidase activity of a ΔarcA strain (e.g., 803 Miller units for wt P1icdA-lacZ without O₂) by the activity of an arcA⁺ strain (e.g., 57 Miller units for wt P1icdA without O₂). The 10-bp DRs are indicated by open boxes with an X representing a DR element for which the repressive activity has been eliminated by mutation, and asterisks denoting DRs that have been mutated towards consensus (see FIG. 1C). (A) Effects of mutations away from consensus within each DR element, assayed under anaerobic conditions (—O₂). (B) The effect of mutations towards consensus within each DR element, assayed under anaerobic conditions. The dotted line represents anaerobic ArcA-dependent repression of wt P1icdA. (C) The effect of mutations towards consensus within each DR element, assayed under aerobic conditions. […]
(§2) β-galactosidase assays—All strains were grown in MOPS minimal medium (Neidhardt et al., 1974) with 0.2% glucose at 37° C. and sparged with a gas mix of 95% N₂ and 5% CO₂ (anaerobic) or 70% N₂, 5% CO₂, and 25% O₂ (aerobic). […] Standard errors for data plotted as ‘fold repression’ were calculated using a propagation of standard error formula (Ku, J. Res. National Bureau of Standards 70C:263-273 (1966)).

[2] = biological target: T1, ArcA (chromosomal); assay: cell_activity; anaerobic; aerobic repression nearly the same, no longer O2 sensitive
Procedure: as §1, §2

[3] = biological target: T1, ArcA (chromosomal); assay: cell_activity; anaerobic
Procedure: P1icdA expression in the construct with a fourth DR element was about 18% higher in a ΔarcA background compared to the other strains tested (data not shown).
How ArcA binding to each DR element contributes to icdA repression was determined by measuring β-galactosidase activity produced from P1icdA-lacZ transcriptional fusions containing the GT-to-CA (5′-TGTTA-3′ to 5′-TCATA-3′) (SEQ ID NO:2; SEQ ID NO:4, respectively) mutations within each DR element under anaerobic conditions. […] P1izcdA was repressed 14-fold by ArcA (FIG. 3A). […]
β-galactosidase assays—All strains were grown in MOPS minimal medium (Neidhardt et al., 1974) with 0.2% glucose at 37° C. and sparged with a gas mix of 95% N₂ and 5% CO₂ (anaerobic) or 70% N₂, 5% CO₂, and 25% O₂ (aerobic). […] To terminate cell growth and any further protein synthesis, chloramphenicol (final concentration, 20 μg/ml) or tetracycline (final concentration, 10 μg/ml) was added, and cells were placed on ice until assayed for β-galactosidase activity (Miller J H (1972) Experiments in molecular genetics. [Cold Spring Harbor, N.Y.]: Cold Spring Harbor Laboratory). β-Galactosidase assays were repeated at least three times and fold repression was calculated by dividing the β-galactosidase activity of a ΔarcA strain by the activity of an arcA⁺ strain. […]

[4] = biological target: T1, ArcA (chromosomal); assay: cell_activity; anaerobic; aerobic about 2.5-fold repression
Procedure: as §1, §2

[5] = biological target: T2, ArcA-P (phosphorylated ArcA) (Escherichia coli, UniProt P0A9Q1 P0A9Q1:1-238); assay: footprint; all four DRs protected; apparent affinity higher than wt; narrow range (<4-fold) of ArcA-P; settings: tags: His6 removed with TEV protease; phosphorylated with carbamyl phosphate; chain copies: 2 per two DR elements (inferred); label: 3' 32P (footprint)
T2 sequence: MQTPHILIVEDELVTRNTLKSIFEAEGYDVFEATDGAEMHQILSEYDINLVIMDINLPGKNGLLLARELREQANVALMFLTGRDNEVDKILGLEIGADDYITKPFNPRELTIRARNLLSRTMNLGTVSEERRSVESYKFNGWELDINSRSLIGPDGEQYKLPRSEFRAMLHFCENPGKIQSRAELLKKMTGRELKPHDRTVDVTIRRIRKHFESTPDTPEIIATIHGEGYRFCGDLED
Procedure: To determine whether adding a fourth DR element facilitates ArcA-P binding and increases the footprint length, a consensus DR element (5′-TGTTA-3′) (SEQ ID NO:2) was added at the same spacing (11 by center-to-center) to either the 3′ or the 5′ end of the three-DR ArcA binding site within the icdA promoter region and DNase I footprinting experiments were performed.
DNase I footprinting: icdA promoter fragments were isolated from pPK9476, pPK9477, pPK9908, pPK9909, pPK9913, pPK9914, and pPK15001 after digestion with XhoI and BamHI. Sequenase Version 2.0 (USB Scientific) was used to 3′ radiolabel the BamHI end of the fragment with [α-³²P]-dGTP (PerkinElmer). Labeled DNA fragments were isolated from a non-denaturing 5% acrylamide gel and were subsequently purified with Elutip-d™ columns (Schleicher and Schuell). ArcA was phosphorylated by incubating with 50 mM disodium carbamyl phosphate (Sigma Aldrich) in 50 mM Tris, pH 7.9, 150 mM NaCl, and 10 mM MgCl₂ for 1 hour at 30° C. (Lynch & Lin, J. Bacteria 178:6238-6249 (1996)) and immediately used in the binding assays. Footprinting assays were performed by incubating phosphorylated ArcA with labeled DNA (˜5 nM) for 10 minutes at 30° C. in 40 mM Tris (pH 7.9), 30 mM KCl, 100 μg/ml BSA and 1 mM DTT followed by the addition of 2 μg/ml DNase I (Worthington) for 30 seconds.

[6] = biological target: T3, ArcA D54E (Escherichia coli, UniProt P0A9Q1 P0A9Q1:1-238, D54E); assay: cell_activity; anaerobic; aerobic repression above wt ArcA
T3 sequence: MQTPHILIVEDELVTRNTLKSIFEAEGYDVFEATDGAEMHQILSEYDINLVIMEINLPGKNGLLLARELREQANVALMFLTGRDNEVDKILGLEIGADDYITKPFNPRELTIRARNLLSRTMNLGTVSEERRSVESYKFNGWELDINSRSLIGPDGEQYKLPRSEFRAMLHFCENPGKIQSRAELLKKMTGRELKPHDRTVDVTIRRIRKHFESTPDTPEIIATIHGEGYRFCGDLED
Text: To test whether the enhanced repression of P₁idcdA with mutant ArcA binding sites is still dependent on phosphorylation, the aspartate residue at position 54 (site of phosphorylation) in the chromosomal copy of arcA was mutated to yield either alanine or glutamate, preventing phosphorylation from ArcB. The D54A variant reduced the repression of all P1icdA-lacZ constructs compared to that with the wt protein under both aerobic and anaerobic growth conditions (FIG. 5A). […] Thus, the elevated aerobic repression with the strengthened ArcA binding sites appears to result from increased occupancy of the small amount of ArcA-P likely present during aerobic conditions.
as §2, with “(aerobic). Cells were harvested during mid-log growth (OD₆₀₀ of ˜0.3 on a Perkin Elmer Lambda 25 UV/Vis Spectrophotometer).” for “(aerobic).”

[7] = biological target: T1, ArcA (chromosomal); assay: cell_activity; anaerobic; aerobic 7-fold repression
Procedure: as §1, §2

[8] = biological target: T1, ArcA (chromosomal); assay: cell_activity; anaerobic; remark: listed apart in the source
Procedure: as §1, §2

[9] = biological target: T1, ArcA (chromosomal); assay: cell_activity; aerobic; anaerobic repression similar to consensus DR3 alone
Procedure: as §1, §2

B1: icdA P1 wt (dsDNA)
DNA 1: AGAGCAATTTTTTGTTAATGATTTGTAATTGGCTTGTCAATACTACCCTATTGT
DNA 2: ACAATAGGGTAGTATTGACAAGCCAATTACAAATCATTAACAAAAAATTGCTCT
**Q.** B1 was tested. Which activity [1] did it give?
**A.** Its activity is 14 fold repression.

B2: icdA P1 5' DR4 (dsDNA)
DNA 1: ATGTTAATTTTTTGTTAATGATTTGTAATTGGCTTGTCAATACTACCCTATTGT
DNA 2: ACAATAGGGTAGTATTGACAAGCCAATTACAAATCATTAACAAAAAATTAACAT
**Q.** B2 was tested. Which activity [2] did it give?
**A.** Its activity is 8 fold increase in repression vs wt.

B3: icdA P1 DR3 GT->CA (dsDNA)
DNA 1: AGAGCAATTTTTTGTTAATGATTTGTAATTGGCTTCACAATACTACCCTATTGT
DNA 2: ACAATAGGGTAGTATTGTGAAGCCAATTACAAATCATTAACAAAAAATTGCTCT
**Q.** With B3 as the binder, how does the activity [3] read?
**A.** The activity was ~3.5 fold loss in repression vs wt.

B4: icdA P1 DR2 A->T (dsDNA)
DNA 1: AGAGCAATTTTTTGTTAATGATTTGTTATTGGCTTGTCAATACTACCCTATTGT
DNA 2: ACAATAGGGTAGTATTGACAAGCCAATAACAAATCATTAACAAAAAATTGCTCT
**Q.** How did the activity [4] turn out when B4 was run?
**A.** Its activity is 3 fold increase in repression vs wt.

B5: icdA P1 3' DR4 (dsDNA)
DNA 1: AGAGCAATTTTTTGTTAATGATTTGTAATTGGCTTGTCAATACTATGTTATTGT
DNA 2: ACAATAACATAGTATTGACAAGCCAATTACAAATCATTAACAAAAAATTGCTCT
**Q.** Does B5 bind [5]?
**A.** Result: binds

B6: icdA P1 DR3 C->T (dsDNA)
DNA 1: AGAGCAATTTTTTGTTAATGATTTGTAATTGGCTTGTTAATACTACCCTATTGT
DNA 2: ACAATAGGGTAGTATTAACAAGCCAATTACAAATCATTAACAAAAAATTGCTCT
**Q.** With B6 as the binder, how does the activity [6] read?
**A.** The activity was 2 fold reduction in repression vs wt ArcA.

**Q.** And the activity [7]?
**A.** The activity was 6 fold increase in repression vs wt.

B7: icdA P1 DR2 A->T, DR3 GT->CA (dsDNA)
DNA 1: AGAGCAATTTTTTGTTAATGATTTGTTATTGGCTTCACAATACTACCCTATTGT
DNA 2: ACAATAGGGTAGTATTGTGAAGCCAATAACAAATCATTAACAAAAAATTGCTCT
**Q.** B7 was tested. Which activity [8] did it give?
**A.** Its activity is 3 fold reduction in repression vs DR2 A->T.

B8: icdA P1 DR2 A->T, DR3 C->T (dsDNA)
DNA 1: AGAGCAATTTTTTGTTAATGATTTGTTATTGGCTTGTTAATACTACCCTATTGT
DNA 2: ACAATAGGGTAGTATTAACAAGCCAATAACAAATCATTAACAAAAAATTGCTCT
**Q.** With B8 as the binder, how does the activity [9] read?
**A.** The activity was 21 fold repression.
